Assay results taken from PMC9482650, “Quantitative fragmentomics allow affinity mapping of interactomes” (Nature Communications, 2022).

T1: ARHGAP21, Q5T5U3
T1 sequence (Q5T5U3 45-169, limits assumed, looked up): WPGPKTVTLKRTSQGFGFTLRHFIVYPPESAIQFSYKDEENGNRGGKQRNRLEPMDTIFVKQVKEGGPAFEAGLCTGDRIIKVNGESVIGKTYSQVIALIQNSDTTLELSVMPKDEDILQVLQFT

T2: DFNB31_2, Q9P202
T2 sequence (Q9P202 274-371, limits assumed, looked up): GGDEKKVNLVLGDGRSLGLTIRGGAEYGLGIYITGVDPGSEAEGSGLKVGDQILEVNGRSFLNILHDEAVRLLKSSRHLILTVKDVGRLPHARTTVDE

T3: DFNB31_3, Q9P202
T3 sequence (Q9P202 811-907, limits assumed, looked up): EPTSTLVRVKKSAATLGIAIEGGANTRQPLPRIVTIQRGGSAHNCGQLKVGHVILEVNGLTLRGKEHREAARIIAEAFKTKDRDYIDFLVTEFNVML

T4: DLG3_2, Q92796
T4 sequence (Q92796 221-321, limits assumed, looked up): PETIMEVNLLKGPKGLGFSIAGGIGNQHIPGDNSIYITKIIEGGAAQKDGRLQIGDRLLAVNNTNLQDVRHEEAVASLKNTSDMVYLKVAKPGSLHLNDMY

T5: GRIP1_4, Q9Y3R0
T5 sequence (Q9Y3R0 467-571, limits assumed, looked up): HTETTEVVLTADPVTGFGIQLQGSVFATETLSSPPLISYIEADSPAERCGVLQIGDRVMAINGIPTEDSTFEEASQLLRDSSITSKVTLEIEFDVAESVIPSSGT

T6: MPDZ_10, O75970
T6 sequence (O75970 1624-1722, limits assumed, looked up): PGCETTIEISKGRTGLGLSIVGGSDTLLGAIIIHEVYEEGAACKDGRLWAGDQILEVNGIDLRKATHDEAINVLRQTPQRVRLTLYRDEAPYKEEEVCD

T7: MPDZ_12, O75970
T7 sequence (O75970 1857-1958, limits assumed, looked up): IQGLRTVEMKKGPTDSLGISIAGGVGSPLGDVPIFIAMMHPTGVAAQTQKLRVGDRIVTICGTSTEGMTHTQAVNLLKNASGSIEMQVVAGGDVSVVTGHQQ

T8: MPDZ_5, O75970
T8 sequence (O75970 695-796, limits assumed, looked up): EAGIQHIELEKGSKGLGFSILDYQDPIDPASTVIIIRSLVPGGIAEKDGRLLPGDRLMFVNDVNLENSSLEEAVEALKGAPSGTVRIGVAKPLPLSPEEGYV

T9: MPP7, Q5T2T1
T9 sequence (Q5T2T1 134-230, limits assumed, looked up): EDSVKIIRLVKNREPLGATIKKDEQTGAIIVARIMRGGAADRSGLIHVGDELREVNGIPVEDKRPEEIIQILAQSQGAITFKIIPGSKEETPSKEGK

T10: PDZD2_2, O15018
T10 sequence (O15018 329-429, limits assumed, looked up): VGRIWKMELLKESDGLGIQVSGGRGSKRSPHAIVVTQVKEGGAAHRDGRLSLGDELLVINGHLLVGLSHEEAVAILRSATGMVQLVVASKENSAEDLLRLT

T11: PDZRN3_1, Q9UPQ7
T11 sequence (Q9UPQ7 244-349, limits assumed, looked up): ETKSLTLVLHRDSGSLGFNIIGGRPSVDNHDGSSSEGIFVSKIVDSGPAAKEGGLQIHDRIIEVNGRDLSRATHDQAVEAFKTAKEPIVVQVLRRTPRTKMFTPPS

T12: SNTA1, Q13424
T12 sequence (Q13424 82-180, limits assumed, looked up): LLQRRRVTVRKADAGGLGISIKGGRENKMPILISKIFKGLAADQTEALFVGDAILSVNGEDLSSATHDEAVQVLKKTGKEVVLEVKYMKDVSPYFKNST

T13: TX1BP3, O14907
T13 sequence (O14907 10-122, limits assumed, looked up): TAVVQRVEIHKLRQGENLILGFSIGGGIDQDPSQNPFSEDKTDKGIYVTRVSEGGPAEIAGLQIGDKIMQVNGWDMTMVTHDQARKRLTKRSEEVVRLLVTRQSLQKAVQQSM

B1: PTPRZ1, P23471 (peptide)
chain: NIAESLESLV
B2: PRR16, Q569H4 (peptide)
chain: ILRKSTTTTV

Each binder was assayed against T1, ARHGAP21, Q5T5U3 (assay: holdup assay). Settings: plain residues with an end cap or a label only (N-terminal biotin on a linker: ado-ado).
Set-up: key: below the threshold = too weak to quantify, mostly under pKd 3.1 to 4

pKd | Binder
below the threshold | B1
3.92 | B2

What follows are binders tested against T2, DFNB31_2, Q9P202 (assay: holdup assay). Settings: plain residues with an end cap or a label only (N-terminal biotin on a linker: ado-ado).
Set-up: key: below the threshold = too weak to quantify, mostly under pKd 3.1 to 4

pKd | Binder
below the threshold | B1
below the threshold | B2

Each binder was assayed against T3, DFNB31_3, Q9P202 (assay: holdup assay). Settings: plain residues with an end cap or a label only (N-terminal biotin on a linker: ado-ado).
Set-up: key: below the threshold = too weak to quantify, mostly under pKd 3.1 to 4

pKd | Binder
below the threshold | B1
below the threshold | B2

These binders were tested against T4, DLG3_2, Q92796 (assay: holdup assay). Settings: plain residues with an end cap or a label only (N-terminal biotin on a linker: ado-ado).
Set-up: key: below the threshold = too weak to quantify, mostly under pKd 3.1 to 4

pKd | Binder
4.81 | B1
5.07 | B2

Each binder was assayed against FRMPD3, Q5JV73 (assay: holdup assay). Settings: plain residues with an end cap or a label only (N-terminal biotin on a linker: ado-ado).
FRMPD3, Q5JV73, sequence (Q5JV73 12-100): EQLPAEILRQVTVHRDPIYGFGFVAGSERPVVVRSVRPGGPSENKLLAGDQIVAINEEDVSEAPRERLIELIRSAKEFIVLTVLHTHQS
Set-up: key: below the threshold = too weak to quantify, mostly under pKd 3.1 to 4

pKd | Binder
below the threshold | B1
below the threshold | B2

What follows are binders tested against T5, GRIP1_4, Q9Y3R0 (assay: holdup assay). Settings: plain residues with an end cap or a label only (N-terminal biotin on a linker: ado-ado).
Set-up: key: below the threshold = too weak to quantify, mostly under pKd 3.1 to 4

pKd | Binder
below the threshold | B1
below the threshold | B2

Each binder was assayed against GRIP2_6, Q9C0E4 (assay: holdup assay). Settings: plain residues with an end cap or a label only (N-terminal biotin on a linker: ado-ado).
GRIP2_6, Q9C0E4, sequence (Q9C0E4 648-740): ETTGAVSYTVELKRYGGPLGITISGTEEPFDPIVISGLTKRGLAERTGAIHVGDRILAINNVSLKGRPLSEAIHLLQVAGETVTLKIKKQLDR
Set-up: key: below the threshold = too weak to quantify, mostly under pKd 3.1 to 4

pKd | Binder
below the threshold | B1
below the threshold | B2

Each binder was assayed against HTRA1, Q92743 (assay: holdup assay). Settings: plain residues with an end cap or a label only (N-terminal biotin on a linker: ado-ado).
HTRA1, Q92743, sequence (Q92743 360-477): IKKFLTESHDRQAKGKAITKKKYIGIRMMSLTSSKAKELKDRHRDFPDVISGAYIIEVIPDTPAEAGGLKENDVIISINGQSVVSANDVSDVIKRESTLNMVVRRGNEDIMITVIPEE
Set-up: key: below the threshold = too weak to quantify, mostly under pKd 3.1 to 4

pKd | Binder
4.41 | B1
4.06 | B2

Each binder was assayed against IL16_1, Q14005 (assay: holdup assay). Settings: plain residues with an end cap or a label only (N-terminal biotin on a linker: ado-ado).
IL16_1, Q14005, sequence (Q14005 210-306): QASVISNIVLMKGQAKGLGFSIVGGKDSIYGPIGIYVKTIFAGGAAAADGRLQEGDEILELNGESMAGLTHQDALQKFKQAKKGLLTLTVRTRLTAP
Set-up: key: below the threshold = too weak to quantify, mostly under pKd 3.1 to 4

pKd | Binder
4.6 | B1
below the threshold | B2

Each binder was assayed against Inadl_3, Q8NI35 (assay: holdup assay). Settings: plain residues with an end cap or a label only (N-terminal biotin on a linker: ado-ado).
Inadl_3, Q8NI35, sequence (Q8NI35 359-469): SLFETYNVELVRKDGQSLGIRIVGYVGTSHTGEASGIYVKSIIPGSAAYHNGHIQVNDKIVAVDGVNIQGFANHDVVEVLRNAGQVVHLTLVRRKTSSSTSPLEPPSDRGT
Set-up: key: below the threshold = too weak to quantify, mostly under pKd 3.1 to 4

pKd | Binder
4.13 | B1
below the threshold | B2

What follows are binders tested against Inadl_4, Q8NI35 (assay: holdup assay). Settings: plain residues with an end cap or a label only (N-terminal biotin on a linker: ado-ado).
Inadl_4, Q8NI35, sequence (Q8NI35 547-651): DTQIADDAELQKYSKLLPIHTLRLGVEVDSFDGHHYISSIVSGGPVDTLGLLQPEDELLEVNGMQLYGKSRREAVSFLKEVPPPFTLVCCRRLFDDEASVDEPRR
Set-up: key: below the threshold = too weak to quantify, mostly under pKd 3.1 to 4

pKd | Binder
below the threshold | B1
below the threshold | B2

These binders were tested against LIMK2, P53671 (assay: holdup assay). Settings: plain residues with an end cap or a label only (N-terminal biotin on a linker: ado-ado).
LIMK2, P53671, sequence (P53671 143-248): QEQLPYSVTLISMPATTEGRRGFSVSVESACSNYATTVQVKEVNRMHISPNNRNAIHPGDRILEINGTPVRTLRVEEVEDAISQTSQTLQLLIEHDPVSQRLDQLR
Set-up: key: below the threshold = too weak to quantify, mostly under pKd 3.1 to 4

pKd | Binder
below the threshold | B1
below the threshold | B2

The binders below were run against MAGI2_2, Q86UL8 (assay: holdup assay). Settings: plain residues with an end cap or a label only (N-terminal biotin on a linker: ado-ado).
MAGI2_2, Q86UL8, sequence (Q86UL8 410-522): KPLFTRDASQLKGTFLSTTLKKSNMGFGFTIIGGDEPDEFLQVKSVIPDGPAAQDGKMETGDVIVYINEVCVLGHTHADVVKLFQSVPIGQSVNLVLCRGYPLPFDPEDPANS
Set-up: key: below the threshold = too weak to quantify, mostly under pKd 3.1 to 4

pKd | Binder
4.28 | B1
5.2 | B2

The binders below were run against MAGI3_2, Q5TCQ9 (assay: holdup assay). Settings: plain residues with an end cap or a label only (N-terminal biotin on a linker: ado-ado).
MAGI3_2, Q5TCQ9, sequence (Q5TCQ9 398-503): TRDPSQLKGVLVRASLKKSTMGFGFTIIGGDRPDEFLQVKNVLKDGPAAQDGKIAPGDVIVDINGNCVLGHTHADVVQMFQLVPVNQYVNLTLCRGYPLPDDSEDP
Set-up: key: below the threshold = too weak to quantify, mostly under pKd 3.1 to 4

pKd | Binder
4.92 | B1
5.15 | B2

Each binder was assayed against T6, MPDZ_10, O75970 (assay: holdup assay). Settings: plain residues with an end cap or a label only (N-terminal biotin on a linker: ado-ado).
Set-up: key: below the threshold = too weak to quantify, mostly under pKd 3.1 to 4

pKd | Binder
below the threshold | B1
below the threshold | B2

These binders were tested against T7, MPDZ_12, O75970 (assay: holdup assay). Settings: plain residues with an end cap or a label only (N-terminal biotin on a linker: ado-ado).
Set-up: key: below the threshold = too weak to quantify, mostly under pKd 3.1 to 4

pKd | Binder
below the threshold | B1
below the threshold | B2

Each binder was assayed against T8, MPDZ_5, O75970 (assay: holdup assay). Settings: plain residues with an end cap or a label only (N-terminal biotin on a linker: ado-ado).
Set-up: key: below the threshold = too weak to quantify, mostly under pKd 3.1 to 4

pKd | Binder
below the threshold | B1
below the threshold | B2

What follows are binders tested against T9, MPP7, Q5T2T1 (assay: holdup assay). Settings: plain residues with an end cap or a label only (N-terminal biotin on a linker: ado-ado).
Set-up: key: below the threshold = too weak to quantify, mostly under pKd 3.1 to 4

pKd | Binder
below the threshold | B1
below the threshold | B2

Each binder was assayed against PDLIM1, O00151 (assay: holdup assay). Settings: plain residues with an end cap or a label only (N-terminal biotin on a linker: ado-ado).
PDLIM1, O00151, sequence (O00151 1-87): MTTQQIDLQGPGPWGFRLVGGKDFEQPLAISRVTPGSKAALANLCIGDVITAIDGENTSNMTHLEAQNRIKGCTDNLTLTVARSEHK
Set-up: key: below the threshold = too weak to quantify, mostly under pKd 3.1 to 4

pKd | Binder
below the threshold | B1
below the threshold | B2

What follows are binders tested against T10, PDZD2_2, O15018 (assay: holdup assay). Settings: plain residues with an end cap or a label only (N-terminal biotin on a linker: ado-ado).
Set-up: key: below the threshold = too weak to quantify, mostly under pKd 3.1 to 4

pKd | Binder
5.37 | B1
4.18 | B2

What follows are binders tested against T11, PDZRN3_1, Q9UPQ7 (assay: holdup assay). Settings: plain residues with an end cap or a label only (N-terminal biotin on a linker: ado-ado).
Set-up: key: below the threshold = too weak to quantify, mostly under pKd 3.1 to 4

pKd | Binder
4.22 | B1
below the threshold | B2

Each binder was assayed against T12, SNTA1, Q13424 (assay: holdup assay). Settings: plain residues with an end cap or a label only (N-terminal biotin on a linker: ado-ado).
Set-up: key: below the threshold = too weak to quantify, mostly under pKd 3.1 to 4

pKd | Binder
4.51 | B1
3.92 | B2

The binders below were run against TJP1_2, Q07157 (assay: holdup assay). Settings: plain residues with an end cap or a label only (N-terminal biotin on a linker: ado-ado).
TJP1_2, Q07157, sequence (Q07157 181-274): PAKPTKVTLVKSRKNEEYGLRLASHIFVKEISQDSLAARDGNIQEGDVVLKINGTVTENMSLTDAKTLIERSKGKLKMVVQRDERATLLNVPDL
Set-up: key: below the threshold = too weak to quantify, mostly under pKd 3.1 to 4

pKd | Binder
below the threshold | B1
below the threshold | B2

The binders below were run against T13, TX1BP3, O14907 (assay: holdup assay). Settings: plain residues with an end cap or a label only (N-terminal biotin on a linker: ado-ado).
Set-up: key: below the threshold = too weak to quantify, mostly under pKd 3.1 to 4

pKd | Binder
4.26 | B1
3.66 | B2
